Experimental data taken from US20070219133A1.

What was measured:
[1] = target: extracellular region of human F158 FcγRIIIa (human) (UniProt P08637); assay: SPR
[2] = target: His-tagged human V158 FcγRIIIa (immobilized on SPR chip) (human) (UniProt P08637); assay: SPR, His-tagged V158 FcγRIIIa immobilized
[3] = target: extracellular region of human V158 FcγRIIIa fused with GST (human) (UniProt P08637); assay: AlphaScreen competition
[4] = target: human FcγRIIIa on human PBMC effector cells (human) (UniProt P08637); assay: cell-based or functional assay
[5] = target: extracellular region of human F158 FcγRIIIa (human) (UniProt P08637); assay: AlphaScreen competition
[6] = target: extracellular region of human FcγRIIb (human) (UniProt P31994); assay: AlphaScreen competition, trastuzumab context
[7] = target: extracellular region of human FcγRIIb (human) (UniProt P31994); assay: AlphaScreen competition

extracellular region of human F158 FcγRIIIa (human), sequence (P08637 17-208): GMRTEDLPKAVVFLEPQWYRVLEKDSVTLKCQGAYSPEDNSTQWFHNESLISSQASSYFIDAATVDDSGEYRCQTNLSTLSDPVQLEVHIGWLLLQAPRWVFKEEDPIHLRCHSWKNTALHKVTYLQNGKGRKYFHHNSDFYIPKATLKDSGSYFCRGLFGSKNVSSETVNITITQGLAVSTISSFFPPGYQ
His-tagged human V158 FcγRIIIa (immobilized on SPR chip) (human), sequence (P08637 17-208 F176V limits assumed): as the sequence (P08637 17-208) above, with F160V counted along it
extracellular region of human V158 FcγRIIIa fused with GST (human), sequence (P08637 17-208 F176V): as the sequence (P08637 17-208) above, with F160V counted along it
extracellular region of human FcγRIIb (human), sequence (P31994 43-217): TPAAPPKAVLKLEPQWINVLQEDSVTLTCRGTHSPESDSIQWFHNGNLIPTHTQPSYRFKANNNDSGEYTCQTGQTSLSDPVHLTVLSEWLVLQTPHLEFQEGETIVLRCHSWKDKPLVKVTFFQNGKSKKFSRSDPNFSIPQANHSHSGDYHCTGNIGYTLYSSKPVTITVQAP

Substance | FcγRIIIa Fold [3] [fold vs WT] | also measured
alemtuzumab Fc variant I332E (antibody) |  | Kd [1]: 72 nM; Kd [2]: 31 nM
alemtuzumab Fc variant S239D/I332E (antibody) | 56.1 | ADCC EC50 (ng/ml), DoHH-2 targets, PBMCs heterozygous V158/F158 FcγRIIIa [4]: 3 ng/mL; ADCC Fold Improvement Over WT [4]: 3.3 fold
alemtuzumab Fc variant S298A (antibody) |  | Kd [1]: 285 nM; Kd [2]: 52 nM
alemtuzumab Fc variant S298A/E333A/K334A (antibody) |  | Kd [1]: 156 nM; Kd [2]: 39 nM
alemtuzumab Fc variant V264I (antibody) |  | Kd [1]: 550 nM; Kd [2]: 64 nM
alemtuzumab Fc variant V264I/I332E (antibody) | 12.5 | Fold [5]: 15.6 fold vs WT; IC50 [5]: 1.1 nM; Fold [3]: 12.8 fold vs WT; IC50 [3]: 0.5 nM; Fold [1]: 14 fold vs WT; Kd [1]: 52 nM; ADCC EC50 (ng/ml), DoHH-2 targets, PBMCs heterozygous V158/F158 FcγRIIIa [4]: 4 ng/mL; ADCC Fold Improvement Over WT [4]: 2.5 fold; Fold [2]: 4 fold vs WT; Kd [2]: 17 nM
alemtuzumab Fc variant W313F (antibody) | 0.88 | 
trastuzumab Fc variant E233D (antibody) | 0.85 | 
trastuzumab Fc variant E272Y (antibody) | 8.7 | 
trastuzumab Fc variant E333H (antibody) | 0.75 | 
trastuzumab Fc variant E333T (antibody) | 0.78 | 
trastuzumab Fc variant F275W (antibody) | 1.11 | 
trastuzumab Fc variant K274L (antibody) | 1.09 | 
trastuzumab Fc variant K326I (antibody) | 1.43 | 
trastuzumab Fc variant K326T (antibody) | 1.88 | 
trastuzumab Fc variant L234I/L235D (antibody) | 0.07 | 
trastuzumab Fc variant N276R (antibody) | 0.66 | 
trastuzumab Fc variant N276Y (antibody) | 0.56 | 
trastuzumab Fc variant P230A (antibody) | 1.09 | 
trastuzumab Fc variant P230A/E233D (antibody) | 0.92 | 
trastuzumab Fc variant S239D (antibody) |  | FcγRIIb Fold [6]: 4.47 fold vs WT

Substance | FcγRIIIa Fold [3] [fold vs WT] | also measured
trastuzumab Fc variant S239D/A330Y/I332E/K326E (antibody) | 64.1 | 
trastuzumab Fc variant S239D/A330Y/I332E/L234I (antibody) | 22.4 | 
trastuzumab Fc variant S239D/A330Y/I332E/L235D (antibody) | 7.04 | 
trastuzumab Fc variant S239D/A330Y/I332E/V240I (antibody) | 28 | 
trastuzumab Fc variant S239D/A330Y/I332E/V264T (antibody) | 17.7 | 
trastuzumab Fc variant S239D/I332E (antibody) |  | FcγRIIb Fold [6]: 19.7 fold vs WT
trastuzumab Fc variant S239D/I332E/A330I (antibody) | 59.1 | 
trastuzumab Fc variant S239D/V264I/I332E (antibody) | 36.6 | FcγRIIb Fold [7]: 14.4 fold vs WT
trastuzumab Fc variant S239N/A330L/I332E (antibody) | 12.9 | 
trastuzumab Fc variant S239N/A330Y/I332E (antibody) | 14.2 | 
trastuzumab Fc variant S324I (antibody) | 1.15 | 
trastuzumab Fc variant S324R (antibody) | 0.71 | 
trastuzumab Fc variant S324V (antibody) | 117 | 
trastuzumab Fc variant S324Y (antibody) | 0.98 | 
trastuzumab Fc variant T335Y (antibody) | 1.56 | 
trastuzumab Fc variant V264I/S298A/I332E (antibody) | 16.5 | 
trastuzumab Fc variant V273I (antibody) | 0.79 | 
trastuzumab Fc variant V302I (antibody) | 1.01 | 
trastuzumab Fc variant V323I (antibody) | 0.83 | 
wild type alemtuzumab (Campath), IgG1, expressed in 293T cells (antibody) |  | Kd [1]: 730 nM; ADCC EC50 (ng/ml), DoHH-2 targets, PBMCs heterozygous V158/F158 FcγRIIIa [4]: 9.9 ng/mL; Kd [2]: 68 nM

More lines, main results first:

FcγRIIIa Fold [3] [fold vs WT] | Substance | also measured
0.67 | trastuzumab Fc variant E283R (antibody) | 
1.06 | trastuzumab Fc variant E318R (antibody) | 
6.11 | trastuzumab Fc variant K274E (antibody) | 
1.41 | trastuzumab Fc variant K274R (antibody) | 
1.41 | trastuzumab Fc variant K274T (antibody) | 
1.06 | trastuzumab Fc variant K274Y (antibody) | 
0.87 | trastuzumab Fc variant N276E (antibody) | 
0.41 | trastuzumab Fc variant N276S (antibody) | 
1.87 | trastuzumab Fc variant P230A/E233D/I332E (antibody) | 
32.1 | trastuzumab Fc variant S239N/S298A/I332E (antibody) | FcγRIIb Fold [7]: 5.15 fold vs WT
2.79 | trastuzumab Fc variant T335D (antibody) | 
2.58 | trastuzumab Fc variant T335R (antibody) | 
1.72 | trastuzumab Fc variant V240I/V266I (antibody) | 
0.9 | trastuzumab Fc variant Y278E (antibody) | 
1.87 | trastuzumab Fc variant Y278T (antibody) | 
0.41 | trastuzumab Fc variant Y278W (antibody) | 
